Assay: soluble on expression in E. coli; label from the status in PepcDB or PDB records

Sequence | soluble on expression in E. coli
WVFFVEDGETIRVRLRSKGPVINTVAMEHNGGGHPMAAGAKAKSWEETDKIV | soluble
LSGMTGNQSPAALMSSNIDLLDAITPNVRDALTALFANIACYVLGSIWFRAGVAERIQASAFVSPGKLKNNASKKSGPISQQDLLILASRFVSPTRAYESFSRFSTEAVKSDSWHKAATPELIAHTERLLAGVLGASSASLVMDSVLQGRDLALDEVFSLVDEASSKIMLSQDMLRGAIEHAYEGMSVIDSDLNLVAWNYKYVELYQYPEGFLQQGMPISEVI | not soluble
MGSDKIHHHHHHMEVTRTDKAVTLRWENEEVSEGTLVFVSSSPSLEANSEPVFKVSNAAKHYTFETKDIPVYFFLQAPNGDKRVVSERILPLESVFNFRDMGGYKTKHGHHVKWGKLYRSSNLVNINQADAALLQKLHIKWICDLRSSSEVQAQPTPEIQGVLNKHIPIGTAKNEKTTLPVSNDKAIYEPLMGESYRVFVQSVDGFKEIFSEILTDAKAGLPFVFHCTAGKDRTGVLAALLLTLLDVPEKTIFDDYAITNRYQDNILQEMGGIVSLFSNGNEKIDLEAFRPMAEARPEYLKIAFDEMKKQFGSVDGYLEKGIGITAEEKAIIQQQLLE | not soluble
MTVTFQNNPVSISGSFPKVGDRLPSFTLCGADLNDLSNEDFKGKKIVMSIFPSIDTPVCSKSVKVLQNALMTRNDTVLLCVSADLPFAMSRFCTEHAVANVTNASFFREPAFTERFGVNLNEGALRGLAARAVIVADEFGVITHSELVNEITNEPDYDRILMSL | not soluble
MNSGYSANIFPSSSSPTLYQSHQLPNPSATMYQATPRDMGKPPVRGKTSPYGFFVKMCYEEHKKKYPNENVQVTEISKKCSEKWKTMVDDEKRRFYELAQKDAERYQAEVSVAAYGGEDAMRKRKRAKKDPHAPKRALSAFFFYSQDKRPEIQAGHPDWKVGQVAQELGKMWKLVPQETKDMYEQKAQADKDRYADEMRNYKAEMQKMSGMDHYDDDNIHHVVHVEDINSQNIS | not soluble
MSLKIAAFGEVMLRFTPPEYLMLEQTEQLRMNFVGTGVNLLANLAHFQLETALITKLPANRLGEAGKAALRKLGISDQWVGEKGDHIGSFFAEMGYGIRPTQVTYQNRHQSAFGISEAKDYDFEAFLAEVDMVHICGISLSLTEKTRDAALILAQKAHAYQKKVCFDFNYRPSLNTANSALFMRQQYERILPYCDIVFGSRRDLVELLGFIPREDLEGEAQETELIQRFMSQYNLEWFAGTTRSHSQNQNYLSGYLYTQNEYQQSEKRPLLNLDRIGAGDAYAAGILYGYSQNWSLEKAVTFATVNGVLAHTIQGDIPLTTVKQVNHVLEHPNIDLIREGHHHHHH | soluble
MSLEMGMNWTHTPLALSALMFAMAAQATPNQATDAVAPEQATGFEHKSLVKAKNWMVTAANPLASEAGASILRQGGNAIDAMVTTQLMLGLVEPQSSGIGGGSFLVYWDAKKKALTTFDGRETAPLNATPELFLDSTGQPMKFYDAVVGGRSVGTPGTVKLLWETHRQYGKLEWARLIEPVAKLAEQGFEVSPRLAALIAEDKERLGRFPATKAYFFDAQGEPLTAGTLLKNPDYAATLRAIAQQGASAFYQGDIAKDIIATVQNAPGNPGVLAQQDFDTYQVKQRAPVCAAYQSYQVCGMGLPSSGGLTVGQILALTEQYDLKGWGAQDVKSWQVLGDASQLAFADRGLYMADQDYVPVPTQGLLDKTYLAERAKLIQPGKALTSAPAGNPPWHHAQLRSPDQSIELPSTSHFNIVDREGNVVSFTTSIENAFGSRLLVRGFLLNNELTDFSFATQSEGRPIANRLEPGKRPRSSMAPTIVLQDNQPYLAIGSPGGSRIIGYVAQAIVAHTQWGMNIQAAINQPHVLNRFGEIELEQGTSAEQFKPALESLGAKVGIKELNSGLHAIRITAQGLEGAADPRREGVAIGEGHHHHHH | not soluble
MGSDKIHHHHHHMQIGEVYFWTSTIKDWKNLLHQDKYKLLIIHCLKELVDRKMIKVYAFVIMPNHIHIVWEMLDQNGKEMPHASFNKKTAHEIVKDLKFNHPLVLPFFKVNEKEREYRIWQRDPLAIEMDSKKKAEQKIDYIHKNPLHERWNLAASPEEYYWSSAMYYQTGEDKFGFLTHYMERF | not soluble
MSITSTDICQAADALKGFVGFNRKTGRYIVRFSEDSFGMDVADDSITPTSEFVWSSVRDDVMRLGREQLQILLEQNINERLNIGEPLLVYLRRQDLPEITAQRQLR | not soluble
MSLGRNPPPAIGQFWHVTDLHLDPTYHITDDHTKVCASSKGANASNPGPFGDVLCDSPYQLILSAFDFIKNSGQEASFMIWTGDSPPHVPVPELSTDTVINVITNMTTTIQSLFPNLQVFPALGNHDYWPQDQLPVVTSKVYNAVANLWKPWLDEEAISTLRKGGFYSQKVTTNPNLRIISLNTNLYYGPNIMTLNKTDPANQFEWLESTLNNSQQNKEKVYIIAHVPVGYLPSSQNITAMREYYNEKLIDIFQKYSDVIAGQFYGHTHRDSIMVLSDKKGSPVNSLFVAPAVTPVKSVLEKQTNNPGIRLFQYDPRDYKLLDMLQYYLNLTEANLKGESIWKLEYILTQTYDIEDLQPESLYGLAKQFTILDSKQFIKYYNYFFVSYDSSVTCDKTCKAFQICAIMNLDNISYADCLKQLYIKHNYEGHHHHHH | soluble
MSEVKYKRVILKLSGEALAGEKGFGINPPVIKTVAEELKDVYDMGVQIAIVVGGGNMWRGEAGAQMGMERAQADYIGMLATIMNALALQDNLESIGVPTRVQTSIEMRQIAEPYIRRKAMRHLEKRRIVIFAGGTGSPYFSTDTTAALRAAEINADAILMAKNGVDGVYSADPNKDASAVKFDTLTHLDIINKGLQVMDTTASSLSMDNDIPVVVFNLNEPGNIRKVVAGEHIGTTVRGKLEHHHHHH | soluble
MRILVLGVGNILLTDEAIGVRIVEALEQRYILPDYVEILDGGTAGMELLGDMANRDHLIIADAIVSKKNAPGTMMILRDEEVPALFTNKISPHQLGLADVLSALRFTGEFPKKLTLVGVIPESLEPHIGLTPTVEAMIEPALEQVLAALRESGVEAIPRSDS | soluble
MGSDKIHHHHHHMTRSVKRVAAIHDLSGFGRASLTAIIPIMSYMGIQVCPMPTAVLSTHTTDFHEYSFVDLTDSMQDFMNHWKKINLEFDAIYTGFLGSPRQVKIISDFVKEFSSDSTLVLIDPVMGDEGELYQTMNSEIVRSMRELIKSADIITPNFTEAAYLLDKDYNLELNEETIKEWILELANMGPDIVIMTSVPENKDKSTISVIAYEKKLNKFWKITSEYIPVSYPGTGDSFASAILGRILKGDNLPQAVGRGMQFITSAIKESYGFDYPTREGILIEKSLEVLNLPFMNGNYKLI | not soluble
MGSDKIHHHHHHMSAPLDIDQLQTFVAIADTGSFTKAADRVFKTQSAVSMQMRRLEERIGKPLFMKDGRGNRLTVEGDRLLNFARRMIRLNNEAIASFDDNRLEGTLRIGTPDDYADRYMPEIIVRFAKTHPNVELYIICEPSVDLAEKMAKGDLDIALVTHNPRARASDVVRTEPLCWVSSINHPLPENAPIPLAVGRRDCQWRQAACAALDATGKEYQILFTSWSSTVVAAAVLAGMAVSVLPESALRPGMKVLTLADGFPSLAPVQIGIMKRPGLSPSLSNAITNHITACLDNITPITVNDDLEGDLKGYPRYPRLRQSHMLPGW | not soluble
MNGVEGNNELSLANTTTPSHASEDLDLKQDQGLQEETDTVREMEAAGEAGADGGASPDSEHCGPELCFRVAENSCAAAARGLEDAPSPSKGGDAPSAPVAADDSSKNGCQLEGPHSPAKPKALEACGAVGLGSQQMPGPKKTKEMTTTKCAISVATGKEGEAGAAMQEKKGLQKEKKVAGGGKEETRPRAPKINCMDSLEAIDQELSNVNAQADRAFLQLERKFGRMRRLHMQRRSFIIQNIPGFWVTAFRNHPQLSPMISGQDEDMMRYMINLEVEELKQPRVGCKFKFIFQSNPYFRNEGLVKEYERRSSGRVVSLSTPIRWHRGQEPQAHIHRNREGNTIPSFFNWFSDHSLLEFDRIAEIIKGELWSNPLQYYLMGDGPRRGVRVPPRQPVESPRSFRFQSG | soluble
MKGQLAFDLPIRPALSREDFFISPANALALASLDGWRDWPRGKMVLVGPRGSGKTHLAHIWAAQAEARLIPAEALARADLPALAADGAVAVEDAERLGGDRAAEEALFHLHNLMLERAGALLITAAGPPRDWGLGLADLKSRMQAASVTRLEAPDDALLSAMLVKLFTDRQIAVPGMLVPWLVARMDRSCEAARALVAALDARSLAERRPISRQMAAELLGLTATDLEHHHHHH | not soluble
